# Measured values as given in PMC5343089, “^1H, ^15N, ^13C backbone resonance assignments of human soluble catechol O-methyltransferase in complex with S-adenosyl-L-methionine and 3,5-dinitrocatechol” (Biomolecular Nmr Assignments, 2016).
# B1: human soluble catechol O-methyltransferase (enzyme, UniProt P21964-2 1-221, looked up)
# chain: QGDTKEQRILNHVLQHAEPGNAQSVLEAIDTYCEQKEWAMNVGDKKGKIVDAVIQEHQPSVLLELGAYCGYSAVRMARLLSPGARLITIEINPDCAAITQRMVDFAGVKDKVTLVVGASQDIIPQLKKKYDVDTLDMVFLDHWKDRYLPDTLLLEECGLLRKGTVLLADNVICPGAPDFLAHVRGSSCFECTHYQSFLEYREVVDGLEKAIYKGPGSEAGP
# notes: Catechol O-methyltransferase, human, soluble isoform (S-COMT), EC 2.1.1.6; valine at the polymorphic position 108; 233 residues with the 12-residue tag, so 221 residues of S-COMT; Q belongs to the ENLYFQG site; 2H,15N,13C-labelled protein; Val108 allele; also called S-COMT; human S-COMT; source: E. coli BL21(DE3), pET21a, purified (His-Trap Ni-Sepharose, Superdex 75 size exclusion)
# Molecular target: the molecule itself
# Assay: SEC + native gel or EMSA + other: mass spectrometry; Superdex 75 26/60, 50 mM Tris-HCl pH 7.5, 50 mM NaCl, 10 mM DTT, 4 °C; two separated peaks; native gel electrophoresis and mass spectrometry not shown
protein,measurement,value
B1,stoichiometry N,2
